In patent US20190077860A1 (EISAI R AND D MANAGEMENT, published 2019):

B1: humanized antibody No. 71 (antibody, human IgG1, kappa)
heavy: QIQLVQSGSELKKPGASVKVSCKASGYTFTDYSMHWVRQAPGQGLKWMGWINTETGEPTYAQGFTGRFVFSLDTSVSTAYLQISSLKAEDTAVYYCARIPLYYYGSRYWYFDVWGQGTTVTVSSASTKGPSVFPLAPSSKSTSGGTAALGCLVKDYFPEPVTVSWNSGALTSGVHTFPAVLQSSGLYSLSSVVTVPSSSLGTQTYICNVNHKPSNTKVDKRVEPKSCDKTHTCPPCPAPPAAAPSVFLFPPKPKDTLMISRTPEVTCVVVDVSHEDPEVQFNWYVDGVEVHNAKTKPREEQFNSTFRVVSVLTVVHQDWLNGKEYKCKVSNKGLPAPIEKTISKTKGQPREPQVYTLPPSREEMTKNQVSLTCLVKGFYPSDIAVEWESNGQPENNYKTTPPMLDSDGSFFLYSKLTVDKSRWQQGNVFSCSVMHEALHNHYTQKSLSLSPG
light: EIVMTQSPATLSVSPGERATLSCRASENIYRNLAWYQQKPGQSPRLLIYAATNLADGIPARFSGSGSGTEYTLTISSLQSEDFAVYYCQHFWGTPWTFGQGTKVEIKRTVAAPSVFIFPPSDEQLKSGTASVVCLLNNFYPREAKVQWKVDNALQSGNSQESVTEQDSKDSTYSLSSTLTLSKADYEKHKVYACEVTHQGLSSPVTKSFNRGEC
notes: human Ig kappa; also called L2-4/HA4
B2: humanized antibody No. 96 (antibody, human IgG1, kappa)
heavy: QVQLVQSGSELKKPGASVKVSCKASGYTFTDYSMHWVRQAPGQGLKWMGWINTETGEPTYADDFKGRFVFSLDTSVSTAYLQISSLKAEDTAVYYCARIPLYYYGSRYWYFDVWGQGTTVTVSSASTKGPSVFPLAPSSKSTSGGTAALGCLVKDYFPEPVTVSWNSGALTSGVHTFPAVLQSSGLYSLSSVVTVPSSSLGTQTYICNVNHKPSNTKVDKRVEPKSCDKTHTCPPCPAPPAAAPSVFLFPPKPKDTLMISRTPEVTCVVVDVSHEDPEVQFNWYVDGVEVHNAKTKPREEQFNSTFRVVSVLTVVHQDWLNGKEYKCKVSNKGLPAPIEKTISKTKGQPREPQVYTLPPSREEMTKNQVSLTCLVKGFYPSDIAVEWESNGQPENNYKTTPPMLDSDGSFFLYSKLTVDKSRWQQGNVFSCSVMHEALHNHYTQKSLSLSPG
light: EIVMTQSPATLSVSPGERATLSCRASENIYRNLAWYQQKPGQSPRLLIYAATNLADGIPARFSGSGSGTEYTLTISSLQSEDFAVYYCQHFWGTPWTFGQGTKVEIKRTVAAPSVFIFPPSDEQLKSGTASVVCLLNNFYPREAKVQWKVDNALQSGNSQESVTEQDSKDSTYSLSSTLTLSKADYEKHKVYACEVTHQGLSSPVTKSFNRGEC
notes: human Ig kappa; also called L2-4/HK2
B3: humanized antibody No. 95 (antibody, human IgG1, kappa)
heavy: QVQLVQSGSELKKPGASVKVSCKASGYTFTDYSMHWVRQAPGQGLEWMGWINTETGEPTYADDFKGRFVFSLDTSVSTAYLQISSLKAEDTAVYYCARIPLYYYGSRYWYFDVWGQGTTVTVSSASTKGPSVFPLAPSSKSTSGGTAALGCLVKDYFPEPVTVSWNSGALTSGVHTFPAVLQSSGLYSLSSVVTVPSSSLGTQTYICNVNHKPSNTKVDKRVEPKSCDKTHTCPPCPAPPAAAPSVFLFPPKPKDTLMISRTPEVTCVVVDVSHEDPEVQFNWYVDGVEVHNAKTKPREEQFNSTFRVVSVLTVVHQDWLNGKEYKCKVSNKGLPAPIEKTISKTKGQPREPQVYTLPPSREEMTKNQVSLTCLVKGFYPSDIAVEWESNGQPENNYKTTPPMLDSDGSFFLYSKLTVDKSRWQQGNVFSCSVMHEALHNHYTQKSLSLSPG
light: EIVMTQSPATLSVSPGERATLSCRASENIYRNLAWYQQKPGQSPRLLIYAATNLADGIPARFSGSGSGTEYTLTISSLQSEDFAVYYCQHFWGTPWTFGQGTKVEIKRTVAAPSVFIFPPSDEQLKSGTASVVCLLNNFYPREAKVQWKVDNALQSGNSQESVTEQDSKDSTYSLSSTLTLSKADYEKHKVYACEVTHQGLSSPVTKSFNRGEC
notes: human Ig kappa; also called L2-4/HK1
B4: humanized antibody No. 93 (antibody, human IgG1, kappa)
heavy: QVQLVQSGSELKKPGASVKVSCKASGYTFTDYSMHWVRQAPGQGLEWMGWINTETGEPTYAQGFTGRFVFSLDTSVSTAYLQISSLKAEDTAVYYCARIPLYYYGSRYWYFDVWGQGTTVTVSSASTKGPSVFPLAPSSKSTSGGTAALGCLVKDYFPEPVTVSWNSGALTSGVHTFPAVLQSSGLYSLSSVVTVPSSSLGTQTYICNVNHKPSNTKVDKRVEPKSCDKTHTCPPCPAPPAAAPSVFLFPPKPKDTLMISRTPEVTCVVVDVSHEDPEVQFNWYVDGVEVHNAKTKPREEQFNSTFRVVSVLTVVHQDWLNGKEYKCKVSNKGLPAPIEKTISKTKGQPREPQVYTLPPSREEMTKNQVSLTCLVKGFYPSDIAVEWESNGQPENNYKTTPPMLDSDGSFFLYSKLTVDKSRWQQGNVFSCSVMHEALHNHYTQKSLSLSPG
light: EIVMTQSPATLSVSPGERATLSCRASENIYRNLAWYQQKPGQSPRLLIYAATNLADGIPARFSGSGSGTEYTLTISSLQSEDFAVYYCQHFWGTPWTFGQGTKVEIKRTVAAPSVFIFPPSDEQLKSGTASVVCLLNNFYPREAKVQWKVDNALQSGNSQESVTEQDSKDSTYSLSSTLTLSKADYEKHKVYACEVTHQGLSSPVTKSFNRGEC
notes: human Ig kappa; also called L2-4/HA1
B5: humanized antibody No. 73 (antibody, human IgG1, kappa)
heavy: QIQLVQSGSELKKPGASVKVSCKASGYTFTDYSMHWVRQAPGQGLKWMGWINTETGEPTYADDFKGRFVFSLDTSVSTAYLQISSLKAEDTAVYYCARIPLYYYGSRYWYFDVWGQGTTVTVSSASTKGPSVFPLAPSSKSTSGGTAALGCLVKDYFPEPVTVSWNSGALTSGVHTFPAVLQSSGLYSLSSVVTVPSSSLGTQTYICNVNHKPSNTKVDKRVEPKSCDKTHTCPPCPAPPAAAPSVFLFPPKPKDTLMISRTPEVTCVVVDVSHEDPEVQFNWYVDGVEVHNAKTKPREEQFNSTFRVVSVLTVVHQDWLNGKEYKCKVSNKGLPAPIEKTISKTKGQPREPQVYTLPPSREEMTKNQVSLTCLVKGFYPSDIAVEWESNGQPENNYKTTPPMLDSDGSFFLYSKLTVDKSRWQQGNVFSCSVMHEALHNHYTQKSLSLSPG
light: EIVMTQSPATLSVSPGERATLSCRASENIYRNLAWYQQKPGQSPRLLIYAATNLADGIPARFSGSGSGTEYTLTISSLQSEDFAVYYCQHFWGTPWTFGQGTKVEIKRTVAAPSVFIFPPSDEQLKSGTASVVCLLNNFYPREAKVQWKVDNALQSGNSQESVTEQDSKDSTYSLSSTLTLSKADYEKHKVYACEVTHQGLSSPVTKSFNRGEC
notes: human Ig kappa; also called L2-4/HK4

Assays:
Test in all cases: ELISA
[1] = biological target: T1, human EphA6 extracellular region-SEAP-His protein (human, UniProt Q9UF33 23-550)
T1 construct: extracellular domain; also called hEphA6-SEAP-His
T1 sequence (looked up): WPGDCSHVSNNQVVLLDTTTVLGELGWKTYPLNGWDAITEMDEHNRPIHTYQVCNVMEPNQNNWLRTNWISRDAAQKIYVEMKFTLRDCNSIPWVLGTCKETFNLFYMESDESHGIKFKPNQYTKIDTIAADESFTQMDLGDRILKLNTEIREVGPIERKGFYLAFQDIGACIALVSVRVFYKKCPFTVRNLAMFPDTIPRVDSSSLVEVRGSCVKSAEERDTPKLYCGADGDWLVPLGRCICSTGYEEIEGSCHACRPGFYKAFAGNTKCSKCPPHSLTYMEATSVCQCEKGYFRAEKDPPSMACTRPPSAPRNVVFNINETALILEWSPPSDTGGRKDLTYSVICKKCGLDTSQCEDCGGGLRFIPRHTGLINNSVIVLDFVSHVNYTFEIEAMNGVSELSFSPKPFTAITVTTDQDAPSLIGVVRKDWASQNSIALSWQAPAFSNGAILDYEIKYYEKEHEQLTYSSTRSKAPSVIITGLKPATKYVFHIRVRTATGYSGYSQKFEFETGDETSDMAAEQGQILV

[2] = biological target: T2, human EphA7 extracellular region-SEAP-His protein (human, UniProt Q15375 28-555)
T2 construct: extracellular domain; also called hEphA7-SEAP-His
T2 sequence (looked up): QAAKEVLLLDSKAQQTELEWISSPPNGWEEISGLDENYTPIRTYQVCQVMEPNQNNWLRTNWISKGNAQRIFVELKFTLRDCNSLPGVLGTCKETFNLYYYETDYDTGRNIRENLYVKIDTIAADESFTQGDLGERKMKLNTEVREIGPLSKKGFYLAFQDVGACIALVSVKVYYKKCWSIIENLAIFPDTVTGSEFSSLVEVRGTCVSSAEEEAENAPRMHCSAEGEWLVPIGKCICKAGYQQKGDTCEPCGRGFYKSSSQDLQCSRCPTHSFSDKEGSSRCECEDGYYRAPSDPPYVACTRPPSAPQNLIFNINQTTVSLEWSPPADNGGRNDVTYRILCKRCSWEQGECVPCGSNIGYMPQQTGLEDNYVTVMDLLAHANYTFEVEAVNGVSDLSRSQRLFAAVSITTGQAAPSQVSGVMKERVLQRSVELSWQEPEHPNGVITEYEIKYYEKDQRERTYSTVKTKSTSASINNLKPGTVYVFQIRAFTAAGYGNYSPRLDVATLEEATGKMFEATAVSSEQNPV

[3] = biological target: T3, human EphB1 extracellular region-SEAP-His protein (human, UniProt P54762 18-540)
T3 construct: extracellular domain; also called hEphB1-SEAP-His
T3 sequence (looked up): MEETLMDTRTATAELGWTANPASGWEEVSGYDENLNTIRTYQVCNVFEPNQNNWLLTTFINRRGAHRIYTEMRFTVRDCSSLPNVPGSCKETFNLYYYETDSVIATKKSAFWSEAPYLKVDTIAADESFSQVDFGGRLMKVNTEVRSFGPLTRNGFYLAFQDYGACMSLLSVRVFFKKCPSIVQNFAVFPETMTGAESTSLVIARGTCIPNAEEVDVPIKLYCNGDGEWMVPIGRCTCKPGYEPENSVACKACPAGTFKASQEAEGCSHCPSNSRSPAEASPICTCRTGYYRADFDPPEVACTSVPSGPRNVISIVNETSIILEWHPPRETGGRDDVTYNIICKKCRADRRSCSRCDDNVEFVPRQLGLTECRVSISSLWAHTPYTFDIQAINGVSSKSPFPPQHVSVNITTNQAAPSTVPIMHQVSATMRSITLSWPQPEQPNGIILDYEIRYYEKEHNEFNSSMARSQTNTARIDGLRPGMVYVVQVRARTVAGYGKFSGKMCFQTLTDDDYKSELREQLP

[4] = biological target: T4, human EphB2 extracellular region-SEAP-His protein (human, UniProt P29323 19-543)
T4 construct: extracellular domain; also called hEphB2-SEAP-His
T4 sequence (looked up): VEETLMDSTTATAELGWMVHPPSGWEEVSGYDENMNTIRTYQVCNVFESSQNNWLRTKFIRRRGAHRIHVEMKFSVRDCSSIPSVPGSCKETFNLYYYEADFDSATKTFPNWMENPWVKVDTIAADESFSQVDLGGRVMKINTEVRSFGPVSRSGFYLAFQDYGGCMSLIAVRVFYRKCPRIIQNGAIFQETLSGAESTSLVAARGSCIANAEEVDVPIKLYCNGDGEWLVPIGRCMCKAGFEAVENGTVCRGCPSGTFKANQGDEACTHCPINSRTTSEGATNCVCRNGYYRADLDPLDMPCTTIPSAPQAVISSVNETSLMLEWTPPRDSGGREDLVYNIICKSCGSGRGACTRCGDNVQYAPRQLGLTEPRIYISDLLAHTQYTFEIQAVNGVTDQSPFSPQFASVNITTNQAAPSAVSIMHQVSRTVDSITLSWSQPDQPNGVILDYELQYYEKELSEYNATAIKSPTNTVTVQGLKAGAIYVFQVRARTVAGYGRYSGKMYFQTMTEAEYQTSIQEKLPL

Binder | A450 as % of hEphA4-SEAP-His [1] | A450 as % of hEphA4-SEAP-His [2] | A450 as % of hEphA4-SEAP-His [3] | A450 as % of hEphA4-SEAP-His [4]
B1 | 9.2% | 5.2% | 5.4% | 5.5%
B2 | 9.8% | 5.3% | 5.6% | 5.5%
B3 | 7% | 4.4% | 4.6% | 4.7%
B4 | 7.1% | 4.9% | 5% | 5%
B5 | 7.4% | 5.6% | 5.7% | 5.6%
